From publication PMC8439105 (Current biology : CB, 2021)
Each block holds one binder with its values, some of them ahead of it.

How the values were obtained:
[1] = target: HA-tagged LC3B-T50A (phospho-deficient mutant) (UniProt Q9GZQ8 1-120, T50A); assay: affinity purification with mass spectrometry
[2] = target: HA-tagged LC3B-T50E (phospho-mimetic mutant) (UniProt Q9GZQ8 1-120, T50E); assay: affinity purification with mass spectrometry
His-tagged LC3B-WT = His-tagged LC3B-WT (human, UniProt Q9GZQ8 1-120); assay: BLI
His-tagged LC3B-T50A = His-tagged LC3B-T50A (human, UniProt Q9GZQ8 1-120, T50A); assay: BLI
His-tagged LC3B-T50E = His-tagged LC3B-T50E (human, UniProt Q9GZQ8 1-120, T50E); assay: BLI

fold change of binding against HA-LC3B-WT [1]: ~2 fold higher | fold change of binding against HA-LC3B-WT [2]: ~5 fold lower
B1: FYCO1 (endogenous, human cells) (natural protein)
chain: MASTNAESQLQRIIRDLQDAVTELSKEFQEAGEPITDDSTSLHKFSYKLEYLLQFDQKEKATLLGNKKDYWDYFCACLAKVKGANDGIRFVKSISELRTSLGKGRAFIRYSLVHQRLADTLQQCFMNTKVTSDWYYARSPFLQPKLSSDIVGQLYELTEVQFDLASRGFDLDAAWPTFARRTLTTGSSAYLWKPPSRSSSMSSLVSSYLQTQEMVSNFDLNSPLNNEALEGFDEMRLELDQLEVREKQLRERMQQLDRENQELRAAVSQQGEQLQTERERGRTAAEDNVRLTCLVAELQKQWEVTQATQNTVKELQTCLQGLELGAAEKEEDYHTALRRLESMLQPLAQELEATRDSLDKKNQHLASFPGWLAMAQQKADTASDTKGRQEPIPSDAAQEMQELGEKLQALERERTKVEEVNRQQSAQLEQLVKELQLKEDARASLERLVKEMAPLQEELSGKGQEADQLWRRLQELLAHTSSWEEELAELRREKKQQQEEKELLEQEVRSLTRQLQFLETQLAQVSQHVSDLEEQKKQLIQDKDHLSQQVGMLERLAGPPGPELPVAGEKNEALVPVNSSLQEAWGKPEEEQRGLQEAQLDDTKVQEGSQEEELRQANRELEKELQNVVGRNQLLEGKLQALQADYQALQQRESAIQGSLASLEAEQASIRHLGDQMEASLLAVRKAKEAMKAQMAEKEAILQSKEGECQQLREEVEQCQQLAEARHRELRALESQCQQQTQLIEVLTAEKGQQGVGPPTDNEARELAAQLALSQAQLEVHQGEVQRLQAQVVDLQAKMRAALDDQDKVQSQLSMAEAVLREHKTLVQQLKEQNEALNRAHVQELLQCSEREGALQEERADEAQQREEELRALQEELSQAKCSSEEAQLEHAELQEQLHRANTDTAELGIQVCALTVEKERVEEALACAVQELQDAKEAASREREGLERQVAGLQQEKESLQEKLKAAKAAAGSLPGLQAQLAQAEQRAQSLQEAAHQELNTLKFQLSAEIMDYQSRLKNAGEECKSLRGQLEEQGRQLQAAEEAVEKLKATQADMGEKLSCTSNHLAECQAAMLRKDKEGAALREDLERTQKELEKATTKIQEYYNKLCQEVTNRERNDQKMLADLDDLNRTKKYLEERLIELLRDKDALWQKSDALEFQQKLSAEERWLGDTEANHCLDCKREFSWMVRRHHCRICGRIFCYYCCNNYVLSKHGGKKERCCRACFQKLSEGPGSPDSSGSGTSQGEPSPALSPASPGPQATGGQGANTDYRPPDDAVFDIITDEELCQIQESGSSLPETPTETDSLDPNAAEQDTTSTSLTPEDTEDMPVGQDSEICLLKSGELMIKVPLTVDEIASFGEGSRELFVRSSTYSLIPITVAEAGLTISWVFSSDPKSISFSVVFQEAEDTPLDQCKVLIPTTRCNSHKENIQGQLKVRTPGIYMLIFDNTFSRFVSKKVFYHLTVDRPVIYDGSDFL

Kd (His-tagged LC3B-WT): ~4.1 µM | Kd (His-tagged LC3B-T50A): ~6 µM | Kd (His-tagged LC3B-T50E): ~28 µM
B2: FYCO1 peptide (1265–1298 amino acids of the human protein) (peptide)
peptide: GQGANTDYRPPDDAVFDIITDEELCQIQESGSSL
